The record followed here is paper PMC6920703, “Measuring glycolytic flux in single yeast cells with an orthogonal synthetic biosensor” (Molecular Systems Biology, 2019).

In data set [1] the test system is CggR wild type (Bacillus subtilis). The experiment in a line: EMSA. The settings on record: 20 mM FBP; 35 nM DNA, 2 or 4 uM CggR, 10 mM Na3PO4 pH 7.8, 100 mM NaCl, 1 mM EDTA, 1 mM DTT, 5% glycerol, 1 ug salmon sperm DNA, 20 min room temperature; 5% native PAGE …. In general terms: A gel shift assay detects complexes by their altered migration in electrophoresis.
The subject of data set [2] is CggR R250A (Bacillus subtilis). The experiment in a line: EMSA. Conditions: 20 mM FBP; 35 nM DNA, 2 or 4 uM CggR, 10 mM Na3PO4 pH 7.8, 100 mM NaCl, 1 mM EDTA, 1 mM DTT, 5% glycerol, 1 ug salmon sperm DNA, 20 min room temperature; 5% native PAGE ….
The target in the next data set is T1, wild-type CggR (Bacillus subtilis, UniProt O32253).
T1 sequence (O32253 1-340): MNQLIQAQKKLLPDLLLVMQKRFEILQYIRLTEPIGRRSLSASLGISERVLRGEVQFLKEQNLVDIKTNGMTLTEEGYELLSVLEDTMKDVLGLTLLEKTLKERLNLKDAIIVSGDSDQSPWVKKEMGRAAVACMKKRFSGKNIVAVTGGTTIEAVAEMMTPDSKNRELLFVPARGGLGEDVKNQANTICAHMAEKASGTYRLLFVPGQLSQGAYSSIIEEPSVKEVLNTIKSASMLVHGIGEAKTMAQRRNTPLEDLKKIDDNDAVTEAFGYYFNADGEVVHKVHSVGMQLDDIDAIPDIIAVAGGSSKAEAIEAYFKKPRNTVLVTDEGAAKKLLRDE
As to the kind of experiment: Thermal shift assay of purified CggR with SYPRO Orange and 0-36 mM FBP (20 to 99 °C in 0.5 °C steps, NaCl counter-ion controls), no DNA; KD from fitting Tm data to a simple cooperative binding model in GraphPad. The source says: We generated these CggR mutants with site‐directed mutagenesis, expressed in E. coli, purified, and biochemically characterized them. To this end, we used thermal shift assays to assess protein stability and ligand binding.
Figure 5 Biochemical characterization of CggR and respective mutants • Thermal shift assays were used to determine the melting curves of wild‐type CggR and mutants. Error bars correspond to the standard deviation of at least five replicates. • CggR‐FBP affinity constants (KD's) of the wild type and mutant variants, determined by fitting a simple cooperative binding model to the melting curves data. Error bars indicate the 95% confidence intervals. • Quantification of CggR binding to DNA. The CggR bound to DNA fraction was calculated by dividing the intensity of the protein–DNA complex band by the total DNA. The background‐subtracted total intensities of the CggR–DNA complex and the free‐DNA bands were assessed with ImageJ. Error bars correspond to the standard deviation of three replicate experiments for the mutants and six for the wild type. • Summary of the biochemical characterization of the wild type and mutant CggR variants. […]
(§1) The K D of the wild type and mutant CggR variants was calculated by fitting the T m data into a simple cooperative model using the GraphPad software.

Data set [3] is described as follows: Thermal shift assay: protein stability (melting temperature) of CggR variants. Conditions: for Protein stability: desired/undesired sign / Protein stability: Fig 5D; for Protein stability: compared with wild type.
Method: A sample mixture of 25 μl final volume containing 5 μl of 5× SYPRO Orange (Molecular Probes; Eugene, OR), 0.2 mg of the purified CggR, and different concentrations of the FBP metabolite (0; 0.01; 0.1; 0.5; 0.75; 1; 2.5; 10; 20; and 36 mM) was prepared on ice. Control experiments were performed to test the effect of the counter ion NaCl present in FBP salt solutions. Here, the NaCl was added instead of FBP to a final concentration threefold higher than the FBP itself (0; 0.03; 0.3; 1.5; 2.25; 3; 7.5; 30; 60; and 108 mM).
Sample mixtures were transferred into 96‐well PCR plates (Bio‐Rad, CA, USA), sealed with Optical‐Quality Sealing Tape (Bio‐Rad, CA, USA), and analyzed in a CFX96 Real‐Time System combined with C1000 Touch Thermal Cycler (Bio‐Rad, CA, USA). Analysis consisted of a single heating cycle from 20 to 99°C with increments of 0.5°C steps, followed by fluorescence intensity monitoring with a charge‐coupled device camera. The wavelengths for excitation and emission were 490 and 575 nm, respectively. The melting temperature (T m) was automatically calculated by the control software and corresponded to the local maximum of the first derivative of measured fluorescence versus temperature.
The nature of data set [4]: Thermal shift assay: CggR-FBP affinity constants (KD) from melting curves. For KD ratio change: desired/undesired sign: key: +: A plus sign indicates desired characteristics achieved in the mutants; -: a minus sign indicates undesired effects of the mutations. The format is binding. The settings on record: for KD ratio change (KD of the CggR mutant variant / KD of the wild type) / KD ratio change: desired/undesired sign: Fig 5D; for Obtained effects on affinity for FBP: classification based on thermal shift assays. On the procedure: as §1
For data set [5], the system named is DNA fragments containing the CggR operator sites. As to the kind of experiment: Electrophoresis mobility shift assay: CggR binding to DNA. For DNA binding affinity: desired/undesired sign: key: +: A plus sign indicates desired characteristics achieved in the mutants; -: a minus sign indicates undesired effects of the mutations. Conditions: for DNA binding affinity: desired/undesired sign / DNA binding affinity: Fig 5D; for DNA binding affinity: compared with wild type; for CggR binding to DNA in the absence of FBP: 0 mM FBP, Fig 5C. On the procedure: Fluorescently labeled DNA fragments were generated by hybridization of single‐stranded forward (labeled with Alexa Fluor 647 at the 5′ end) and reverse (unlabeled) oligonucleotides containing the CggR operator sites. The hybridization protocol and respective hybridization efficiency control were performed as described elsewhere (Bley Folly et al, 2018).
Hybridized labeled DNA fragments (final concentration 35 nM) were incubated 20 min at room temperature with 2 or 4 μM of the purified wild type or mutant CggR variants, in the presence of different concentrations of FBP (0; 0.5; 1; 2.5; 5; 10; and 20 mM) in a final volume of 25 μl in binding buffer (10 mM Na3PO4 pH 7.8, 100 mM NaCl, 1 mM EDTA, 1 mM DTT, 5% glycerol) including 1 μg of salmon sperm DNA. The sample mixtures were loaded in a 5% native polyacrylamide gel and run in native conditions in the dark with constant voltage (200V) at 4°C for 2 h.
Fluorescence was imaged using the Typhoon 9400 (Amersham Biosciences, UK) with the excitation set to 650 nm and the emission set to 655 nm. The background‐subtracted total intensities of the protein–DNA complex and the free‐DNA bands were assessed using ImageJ (Abràmoff et al, 2004), and bound DNA/total DNA was calculated by dividing the intensity of the protein–DNA complex band by the total DNA (i.e., the sum of the signal from the protein–DNA complex band plus the one from free DNA).

Where [6] appears, read: KD for FBP relative to wild type CggR (1 mM).

Where a chain is given by its changes, count along the chain named. In names and notes the source's numbering stands. Entries after “also recorded” stand apart in the source; their conditions may differ.

On to CggR operator duplex (CggRO), for which the binding signal (% of CggR remaining bound vs 0 mM FBP) in data set [1] and in data set [2] was 30 throughout.

For `O=P(O)(O)OC[C@H]1OC(O)(COP(=O)(O)O)[C@@H](O)[C@@H]1O` (stereo partly shown) [FBP, fructose-1,6-bisphosphate], on wild-type CggR, the Kd was determined as 1 mM.

B1: T151S: CggR mutant, position 151 Thr to Ser, at the CggR-FBP-binding site (protein, UniProt O32253 1-340, looked up, variant T151S)
Central glycolytic genes …: T1 sequence (O32253 1-340) with T151S
Take B1: in data set [3], the “Obtained effects on stability” value is reported as “No effect”, the “Protein stability: desired/undesired sign” value was “+” and the Protein stability result is listed as “Same range”. In addition, in data set [4], the “KD ratio change (KD of the CggR mutant variant / KD of the wild type)” value came out at 0.90, the “KD ratio change: desired/undesired sign” value is recorded as “-” and the “Obtained effects on affinity for FBP” value was “mild affinity increase”. Besides, the “fold lower KD than wild type” value in data set [4] (setting [6]) stood at 1.1 fold. Besides, in data set [5], the “Obtained effects on DNA binding affinity” value is reported as “No effect”, the “DNA binding affinity: desired/undesired sign” value is given as “+” and the DNA binding affinity entry is listed as “Same range”.

B2: R250A: CggR mutant, position 250 Arg to Ala; selected for the glycolytic flux biosensor (protein, UniProt O32253 1-340, looked up, variant R250A)
Central glycolytic genes …: T1 sequence (O32253 1-340) with R250A
Consider B2, for which, in data set [3], the “Obtained effects on stability” value is given as “No effect” and the Protein stability entry is on record as “Same range”. Also, in data set [4], the “KD ratio change (KD of the CggR mutant variant / KD of the wild type)” value came to 1.52, the “KD ratio change: desired/undesired sign” value was “+” and the “Obtained effects on affinity for FBP” value is “desired decrease in FBP affinity; also recorded: strong affinity decrease”. Besides, in data set [5], the “Obtained effects on DNA binding affinity” value is recorded as “No effect”, the “CggR binding to DNA in the absence of FBP” value (shortened to “CggR binding to DNA”) is on record as “similar”, the “DNA binding affinity: desired/undesired sign” value was “+” and the DNA binding affinity entry was “Same range”. For the same molecule, the “CggR remained bound to DNA at high FBP levels” value in data set [5] (20 mM FBP relative to bound fraction at 0 mM FBP) was “around 30%”.

B3: E269Q: CggR mutant, position 269 Glu to Gln, at the CggR-FBP-binding site (protein, UniProt O32253 1-340, looked up, variant E269Q)
Central glycolytic genes …: T1 sequence (O32253 1-340) with E269Q
Consider B3, for which, in data set [3], the “Obtained effects on stability” value was “Strong decrease” and the Protein stability result is “Very low”. Also, in data set [4], the “KD ratio change (KD of the CggR mutant variant / KD of the wild type)” value is 0.79, the “KD ratio change: desired/undesired sign” value is recorded as “-” and the “Obtained effects on affinity for FBP” value is listed as “mild affinity increase”. Further, in data set [5], the “Obtained effects on DNA binding affinity” value was “Disrupted affinity”, the “CggR binding to DNA” value is given as “did not bind to the DNA anymore”, the “DNA binding affinity: desired/undesired sign” value is given as “-” and the DNA binding affinity result is “No binding”.

B4: T152S: CggR mutant, position 152 Thr to Ser, at the CggR-FBP-binding site (protein, UniProt O32253 1-340, looked up, variant T152S)
Central glycolytic genes …: T1 sequence (O32253 1-340) with T152S
For the molecule B4, in data set [3], the “Obtained effects on stability” value is given as “No effect”, the “Protein stability: desired/undesired sign” value is listed as “+” and the Protein stability entry is “Same range”. In data set [4], the “KD ratio change (KD of the CggR mutant variant / KD of the wild type)” value is 0.62 and the “KD ratio change: desired/undesired sign” value is recorded as “-”. The “fold lower KD than wild type” value in data set [4] (setting [6]) was 1.6 fold. Besides, in data set [5], the “Obtained effects on DNA binding affinity” value is given as “No effect”, the “DNA binding affinity: desired/undesired sign” value is given as “+” and the DNA binding affinity result was “Same range”.

B5: R175K: CggR mutant, position 175 Arg to Lys, at the CggR-FBP-binding site (protein, UniProt O32253 1-340, looked up, variant R175K)
Central glycolytic genes …: T1 sequence (O32253 1-340) with R175K
As to B5, in data set [3], the “Obtained effects on stability” value is “No effect”, the “Protein stability: desired/undesired sign” value is “+” and the Protein stability result was “Same range”. Moreover, in data set [4], the “KD ratio change (KD of the CggR mutant variant / KD of the wild type)” value amounted to 0.98, the “KD ratio change: desired/undesired sign” value was “-” and the “Obtained effects on affinity for FBP” value is given as “negligible affinity increase”. In addition, in data set [5], the “Obtained effects on DNA binding affinity” value is “Disrupted affinity”, the “CggR binding to DNA” value is “did not bind to the DNA anymore”, the “DNA binding affinity: desired/undesired sign” value is “-” and the DNA binding affinity result is “No binding”.

B6: T151V: CggR mutant, position 151 Thr to Val, at the CggR-FBP-binding site (protein, UniProt O32253 1-340, looked up, variant T151V)
Central glycolytic genes …: T1 sequence (O32253 1-340) with T151V
As for B6, in data set [3], the “Obtained effects on stability” value was “Strong decrease” and the Protein stability entry is listed as “Very low”. For the same molecule, in data set [4], the “KD ratio change (KD of the CggR mutant variant / KD of the wild type)” value was determined as 2.59, the “KD ratio change: desired/undesired sign” value is reported as “+” and the “Obtained effects on affinity for FBP” value was “strong affinity decrease”. The “fold increase of KD over wild type” value in data set [4] (setting [6]) is recorded as 2.6 fold. For the same molecule, in data set [5], the “Obtained effects on DNA binding affinity” value is “Reduced affinity”, the “CggR binding to DNA” value was “only bound with lower affinity”, the “DNA binding affinity: desired/undesired sign” value was “-” and the DNA binding affinity entry is reported as “Reduced”.

One may read the Kd as the free concentration of one partner at which half of the binding sites on the other are occupied at equilibrium, for simple one-to-one binding.
